Test results as given in patent US5558865.

Tests used:
[1] = molecular target: native HIV-1IIIB gp120 (HIV-1 strain IIIB) (UniProt P04578)
[2] = molecular target: native HIV-1MN gp120 (HIV-1 strain MN) (UniProt P05877)
[3] = molecular target: native HIV-1IIIB gp120 (HIV-1 strain IIIB) (UniProt P04578); remark: listed apart in the source
[4] = molecular target: native HIV-1MN gp120 (HIV-1 strain MN) (UniProt P05877); remark: listed apart in the source
[5] = molecular target: gp120 of HIV-1 strain RF (HIV-1 strain RF)
[6] = molecular target: peptide of amino acids 322-336 of HIV-1MN gp120 (HIV-1 strain MN); assay: peptide ELISA, 500 ng MIgG
[7] = molecular target: peptide of amino acids 302-316 of HIV-1MN gp120 (HIV-1 strain MN); assay: peptide ELISA, 500 ng MIgG
[8] = molecular target: peptide of amino acids 312-326 of HIV-1MN gp120 (HIV-1 strain MN); assay: peptide ELISA, 500 ng MIgG

Sequence of monoclonal antibody NM-01 (VH): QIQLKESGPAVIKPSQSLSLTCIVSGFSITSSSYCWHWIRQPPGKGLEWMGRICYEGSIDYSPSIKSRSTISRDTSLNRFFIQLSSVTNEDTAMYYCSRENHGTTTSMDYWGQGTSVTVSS
Sequence of monoclonal antibody NM-01 (VL): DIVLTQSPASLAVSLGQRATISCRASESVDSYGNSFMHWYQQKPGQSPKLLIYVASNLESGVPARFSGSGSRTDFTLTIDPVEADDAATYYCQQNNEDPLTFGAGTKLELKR

Substance	ID50, syncytium formation of IIIB-infected H9 cells with C8166 cells [1] [µg/mL]	ID50, syncytium formation of MN-infected H9 cells with C8166 cells [2] [µg/mL]	ID50, MT-2 assay (cell viability by MTT), live IIIB virus [3] [µg/mL]	ID50, MT-2 assay (cell viability by MTT), live MN virus [4] [µg/mL]	ID50, syncytium formation of RF-infected cells [5] [µg/mL]	optical density at 650 nm [6] [OD 650 nm]	optical density at 650 nm [7] [OD 650 nm]	optical density at 650 nm [8] [OD 650 nm]
monoclonal antibody NM-01	3	2	0.1	2	4	–	–	–
mouse IgG (polyclonal serum or antibody)	–	–	–	–	–	0.042	0.049	0.043
